Laboratory results published in US11312773B2, “Anti-PD-L1 antibody” (Fuso Pharmaceutical Industries, Ltd., priority 2016, dated 2022).

Test system: porcine PD-1/PD-L1 binding
Experiment: Porcine PD-1/PD-L1 binding inhibition test (PD-1-EGFP COS-7 cells and PD-L1-Ig)
Details: antibody 0-50 μg/ml, porcine PD-L1-Ig 5 μg/ml
Description: Using ovine PD-1-EGFP expressing COS-7 cells and ovine PD-L1-Ig recombinant protein, or porcine PD-1-EGFP expressing COS-7 cells and porcine PD-L1-Ig recombinant protein, inhibition of ovine or porcine PD-1/PD-L1 binding by rat anti-bovine PD-L1 antibody […] was tested. […] Subsequently, the antibody 4G12 was reacted with 2×10^5 ovine PD-1-EGFP expressing COS-7 cells or porcine PD-1-EGFP expressing COS-7 cells at 37° C. for 30 min. After washing, ovine PD-L1-Ig or porcine PD-L1-Ig bound to cell surfaces was detected with Alexa Fluor 647-labeled anti-rabbit IgG (H+L) goat F(ab′)2 (Life Technologies). For analysis, FACS Verse (BD Biosciences) was used. As a negative control antibody, rat IgG2a (κ) isotype control (BD Biosciences) was used. Taking the proportion of PD-L1-Ig bound cells without antibody addition as 100%, the proportion of PD-L1-Ig bound cells at each antibody concentration was shown as relative value.

B1: 4G12: rat anti-bovine PD-L1 monoclonal antibody; VL SEQ ID NO: 1, VH SEQ ID NO: 2 (antibody, listed as Rattus norvegicus, V domains shown)
VH: MGWSQIILFLVAAATCVHSQVQLQQSGAELVKPGSSVKISCKASGYTFTSNFMHWVKQQPGNGLEWIGWIYPEYGNTKYNQKFDGKATLTADKSSSTAYMQLSSLTSEDSAVYFCASEEAVISLVYWGQGTLVTVSS
VL: MESQTHVLISLLLSVSGTYGDIAITQSPSSVAVSVGETVTLSCKSSQSLLYSENQKDYLGWYQQKPGQTPKPLIYWATNRHTGVPDRFTGSGSGTDFTLIISSVQAEDLADYYCGQYLVYPFTFGPGTKLELK
Inhibition of porcine PD-1/PD-L1 binding: capable of inhibiting
